In this test the target is T1, activated soluble HLA-A*0201.
T1 construct: MHC class I molecule that receives peptide in the fluorescence polarization assay (PolyTest); also called sHLA
In words: fluorescence polarization competition (PolyTest). Background: Polarisation of emitted light reports the rotation of a fluorescent probe.

Protocol: FP-based peptide binding assay (PolyTest). […] For all preparations, 1×BGG/PBS was used as buffer. […] FP values given as milli-polarization (mP) are calculated by the equation:polarization (mP)=1000(S−GP)/(S+GP), where S and P are background-subtracted intensities of the fluorescence measured in the parallel (S) and perpendicular (P) directions, respectively, and G (grating) is the instrument and assay dependent correction factor.
Competition experiments were analyzed by plotting FPₘₐₓ (maximal polarization) values as a function of the logarithms of competitor concentrations. […] Observed inhibitory concentrations (IC₅₀) were determined by nonlinear curve fitting to a dose-response model with variable slope using the specific software Prism (Graph Pad Software Inc.; San Diego, Calif.).

As for VLQGVLPAL (also called VLQ(44)) [VLQGVLPAL, human chorionic gonadotropin-beta peptide 44-52], the binding result is on record as “binds”.

In the case of GVLPALPQV (also called GVL(47)) [GVLPALPQV, human chorionic gonadotropin-beta peptide 47-55], the binding result is recorded as “binds”.

On to TMTRVLQGV (also called TMT(40)) [TMTRVLQGV, human chorionic gonadotropin-beta peptide 40-48], for which the binding result is listed as “binds”.

These data come from US20090075304A1 (published 2009).
